Data as given in patent publication US20190016816A1 (APTEVO RESEARCH AND DEVELOPMENT, published 2019).
Each block holds one binder with its values, some of them ahead of it.

Legend:
FcγRIIb (CD32b) = target: T1, FcγRIIb (CD32b) (UniProt P31994 43-310, limits assumed); assay: flow cytometry, CHO cells stably expressing CD32b, fluorescent anti-human IgG secondary, MFI (mean)
T1 construct: whole, on cells
T1 sequence (looked up): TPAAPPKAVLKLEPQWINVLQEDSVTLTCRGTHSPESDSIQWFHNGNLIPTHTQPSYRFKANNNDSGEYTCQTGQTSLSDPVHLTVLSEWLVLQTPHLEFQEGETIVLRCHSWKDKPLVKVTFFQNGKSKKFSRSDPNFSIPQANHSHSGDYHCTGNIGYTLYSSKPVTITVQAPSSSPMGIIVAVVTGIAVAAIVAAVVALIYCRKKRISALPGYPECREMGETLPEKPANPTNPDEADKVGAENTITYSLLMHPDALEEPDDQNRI
Source text: ALG.APV-210 contains mutations introduced to prevent interaction with Fcγ receptors (FcγR) that could lead to FcγR-mediated T-cell activation or ADCC, ADCP, CDC etc. Binding of ALG.APV-210 was therefore tested on CHO cell transfectants stably expressing the following FcγR: FcγRI (CD64), FcγRIIa (CD32a His131), FcγRIIb (CD32b), FcγRIIIa (CD16a Val158 and CD16a Phe158), and FcγRIIIb (CD16b). Untransfected CHO cells were used as negative control. A control human IgG1 molecule was used as a positive control. Different concentrations of ALG.APV-210 or control IgG1 were incubated with the FcγR-expressing cell lines, washed, and labeled with a secondary anti-human IgG reagent. Binding of ALG.APV-210 and the control IgG1 was detected by flow cytometry.

human 5T4 on cells [1] = target: T2, human 5T4 on cells (human, UniProt Q13641 32-420); assay: flow cytometry, CHO-hu5T4 cells, streptavidin-PE, normalized MFI of 2 pooled experiments
T2 construct: also called TPBG; hu5T4
T2 sequence: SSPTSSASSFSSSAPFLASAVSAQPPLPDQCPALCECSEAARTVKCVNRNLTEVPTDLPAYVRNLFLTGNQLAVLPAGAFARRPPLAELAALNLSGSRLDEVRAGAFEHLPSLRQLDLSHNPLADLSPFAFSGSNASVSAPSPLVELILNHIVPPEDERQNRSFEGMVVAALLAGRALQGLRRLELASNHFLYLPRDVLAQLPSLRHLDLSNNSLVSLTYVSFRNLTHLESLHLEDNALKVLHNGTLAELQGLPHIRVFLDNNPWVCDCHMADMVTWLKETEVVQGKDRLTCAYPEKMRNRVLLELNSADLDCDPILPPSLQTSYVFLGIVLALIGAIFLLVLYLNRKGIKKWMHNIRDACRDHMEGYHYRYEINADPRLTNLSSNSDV
Description: (§1) Prior to the FACS staining, all cell lines were characterized for their 5T4 expression levels using a receptor density kit (Quantum Simply Cellular, anti-human IgG, Bangs Laboratories, Inc). Adherent cell lines were cultured according to their supplier's instructions and were harvested from their cell culture flasks using Trypsin/EDTA, counted in R10 medium in a Burker chamber, and diluted in FACS buffer (PBS+0.5% BSA, 0.05% NaN₃) to a concentration of 4×10⁶ cells/mL. 50 μL (0.20×10⁶) of cell solution was added to a 96-well FACS staining plate (Falcon #351190). Cells were incubated for 20 min in 4° C. with 50 μL of the biotinylated ALG.APV-210 (2× final concentration). The antibodies were added in a serial dilution starting at 20 μg/mL titrating down in a 12 step ½ dilution down to 0.010 μg/mL. Following 2× washing with FACS buffer, cells were incubated for 30 min in 4° C. with 100 μL of a secondary antibody (streptavidin-PE, BD #554061, diluted 1/500). […] Cells were analysed for ALG.APV-210 binding using flow cytometry (FACSVerse) by gating on single cells. MFI values (secondary antibody only subtracted) from 1 out of 2 independent experiments, as well as normalized data and EC₅₀-values of pooled data from 2 experiments were determined and plotted using GraphPad Prism 7, non-linear regression log (agonist) vs. normalized response—variable slope.

human 5T4 on cells [2] = target: T2, human 5T4 on cells; assay: flow cytometry, JAR cells, streptavidin-PE, normalized MFI of 2 pooled experiments
Description: as §1

human 5T4 on cells [3] = target: T2, human 5T4 on cells; assay: flow cytometry, HCT-116 cells, streptavidin-PE, normalized MFI of 2 pooled experiments; HCT-116 cells
Description: as §1

[4] = target: T3, cynomolgus CD137 on cells (cynomolgus macaque, UniProt A9YYE7 24-254); assay: flow cytometry, percentage of CD8 T cells (gated from CD3-stimulated cynomolgus PBMC) bound by the biotinylated antibody, exp 1, n=3 donors
T3 construct: whole, on cells; also called CHO-K1/cynomolgus CD137 cell line; cynomolgus monkey CD137 on CD3-stimulated primary CD8 T cells
T3 sequence (A9YYE7 entry or part of it): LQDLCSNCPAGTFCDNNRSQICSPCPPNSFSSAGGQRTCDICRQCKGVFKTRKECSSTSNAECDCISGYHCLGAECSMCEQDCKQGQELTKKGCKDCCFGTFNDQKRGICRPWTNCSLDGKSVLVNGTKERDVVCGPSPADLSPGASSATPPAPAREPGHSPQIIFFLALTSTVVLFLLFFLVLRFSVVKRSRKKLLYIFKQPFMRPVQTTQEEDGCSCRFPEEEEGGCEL
Description: Following 48 h of incubation with or without CD3, human and cynomolgus PBMC were harvested, pooled, recounted and diluted in FACS buffer (PBS+0.5% BSA, 0.05% NaN₃) to a concentration of 5×10⁶ cells/mL. 50 μL (0.25×10⁶ cells) of cell solution was added to a 96-well FACS staining plate (Falcon #351190). Following 10 min of Fc-blocking in RT using Beriglobin (hIgG, 200 μg/mL), cells were washed in FACS buffer and then incubated for 1 h in 4° C. with 100 μL of the biotinylated ALG.APV-210 or negative control. The antibodies were added in a serial dilution starting either at 5 μg/mL titrating down in a 12 step ⅓ dilution down to […] (exp 1) or 1 μg/mL titrating down in a 12 step ½ dilution down to 0.0005 μg/mL (exp 2). […] Cells were analysed for ALG.APV-210 binding using flow cytometry by gating on viable, single cells expressing CD3 and CD8. MFI values (FMO subtracted) from 2 independent experiments as well as normalized pooled data from 2 experiments and EC₅₀-values were determined and plotted using GraphPad Prism 7, non-linear regression log (agonist) vs. normalized response—variable slope, n=6 donors/group.

binding result (FcγRIIb (CD32b)): no binding (tested: 1000 nM)
B1: ALG.APV-210 (bispecific antibody)
chain: EVQLLESGGGLVQPGGSLRLSCAASGFTFSHGSMYWVRQAPGKGLEWVSSISSGSGSTYYADSVKGRFTISHDNSKNTLYLQMNSLRAEDTAVYYCARSSYYGSYYSIDYWGQGTLVTVSSGGGGSGGGGSGGGGSGGGGSDIQMTQSPSSLSASVGDRVTITCRASQSISSYLNWYQQKPGKAPKLLIYAASSLQSGVPSRFSGSGSGTDFTLTISSLQPEDFATYYCQQYYDNLPTFGQGTKLEIKEPKSSDKTHTCPPCPAPEAAGAPSVFLFPPKPKDTLMISRTPEVTCVVVDVSHEDPEVKFNWYVDGVEVHNAKTKPREEQYNSTYRVVSVLTVLHQDWLNGKEYKCAVSNKALPAPIEKTISKAKGQPREPQVYTLPPSRDELTKNQVSLTCLVKGFYPSDIAVEWESNGQPENNYKTTPPVLDSDGSFFLYSKLTVDKSRWQQGNVFSCSVMHEALHNHYTQKSLSLSPGSGGGGSGGGGSGGGGSPSEVQLLESGGGLVQPGGSLRLSCAASGFTFSSYAMSWVRQAPGKCLEWVSAISGSGGSTYYADSVKGRFTISRDNSKNTLYLQMNSLRAEDTAVYYCARYYGGYYSAWMDYWGQGTLVTVSSGGGGSGGGGSGGGGSGGGGSDIQMTQSPSSLSASVGDRVTITCRASQSISSFLNWYQQKPGKAPKLLIYAASSLQSGVPSRFSGSGSGTDFTLTISSLQPEDSATYYCQQTYGYLHTFGCGTKLEIKR
notes: Optimized ADAPTIR scFv-Fc-scFv homodimer with stabilizing disulfide in the 1210 scFv; also called 5T4-CD137 bispecific antibody

B2: biotinylated ALG.APV-210 (bispecific antibody)
chain: B1 chain
notes: also called ALG.APV-210 (biotinylated for FACS detection)
EC50 (human 5T4 on cells [1]): 23 nM
EC50 (human 5T4 on cells [2]): 9 nM
EC50 (human 5T4 on cells [3]): 16 nM
EC50 (read off the curve) [4]: ~0.02 nM
